Test results reported in paper PMC9907810.

Target: SARS-CoV-2 S-2P (engineered Spike ectodomain trimer with two stabilizing proline mutations) (SARS-CoV-2)
Assay: […] (200 mM NaCl, 20 mM Tris-HCl pH 7.5), 4 °C; […]

SARS-CoV-2 S-2P (engineered Spike ectodomain trimer with two stabilizing proline mutations) (natural protein)
stoichiometry N: 3
